Assay results taken from patent US20220040297A1 (Chugai, published 2022).
Where a chain is given by its changes, count along the chain named.

B1: GLS3000 S27eA (antibody, name in Kabat numbering, V domains shown)
VH: QVQLVESGGGVVQPGRSLRLSCAASGFTFSNAWMHWVRQAPGKGLEWVAQIKAKSNNYATYYAESVKGRFTISRDDSKNSLYLQMNSLKTEDTAVYYCRYVHYGAYYGVDAWGQGTTVTVSS
VL: DIVMTQSPLSLPVTPGEPASISCRSSQSLVHANRNTYLHWYQQKPGQAPRLLIYKVSNRFSGVPDRFSGSGSGTDFTLKISRVEAEDVGVYYCGQGTQVPYTFGQGTKLEIK
notes: one-arm format as m2
B2: GLS3000 F55W (antibody, name in Kabat numbering, V domains shown)
VH: B1 VH
VL: B1 VL with A32S, F60W
notes: one-arm format as m2
B3: GLS3000 F55V (antibody, name in Kabat numbering, V domains shown)
VH: B1 VH
VL: B1 VL with A32S, F60V
notes: one-arm format as m2
B4: GLS3000 G89A (antibody, name in Kabat numbering, V domains shown)
VH: B1 VH
VL: B1 VL with A32S, G94A
notes: one-arm format as m2
B5: GLS3000 F55D (antibody, name in Kabat numbering, V domains shown)
VH: B1 VH
VL: B1 VL with A32S, F60D
notes: one-arm format as m2
B6: GLS3000 F55I (antibody, name in Kabat numbering, V domains shown)
VH: B1 VH
VL: B1 VL with A32S, F60I
notes: one-arm format as m2
B7: GLS3000 F55R (antibody, name in Kabat numbering, V domains shown)
VH: B1 VH
VL: B1 VL with A32S, F60R
notes: one-arm format as m2
B8: GLS3000 G89P (antibody, name in Kabat numbering, V domains shown)
VH: B1 VH
VL: B1 VL with A32S, G94P
notes: one-arm format as m2
B9: GLS3000 H27dD (antibody, name in Kabat numbering, V domains shown)
VH: B1 VH
VL: B1 VL with H31D, A32S
notes: one-arm format as m2
B10: GLS3000 F55L (antibody, name in Kabat numbering, V domains shown)
VH: B1 VH
VL: B1 VL with A32S, F60L
notes: one-arm format as m2
B11: GLS3000 F55M (antibody, name in Kabat numbering, V domains shown)
VH: B1 VH
VL: B1 VL with A32S, F60M
notes: one-arm format as m2
B12: GLS3000 G91P (antibody, name in Kabat numbering, V domains shown)
VH: B1 VH
VL: B1 VL with A32S, G96P
notes: one-arm format as m2
B13: GLS3000 G91S (antibody, name in Kabat numbering, V domains shown)
VH: B1 VH
VL: B1 VL with A32S, G96S
notes: one-arm format as m2
B14: GLS3000 G89L (antibody, name in Kabat numbering, V domains shown)
VH: B1 VH
VL: B1 VL with A32S, G94L
notes: one-arm format as m2
B15: GLS3000 F55Y (antibody, name in Kabat numbering, V domains shown)
VH: B1 VH
VL: B1 VL with A32S, F60Y
notes: one-arm format as m2
B16: GLS3000 F55A (antibody, name in Kabat numbering, V domains shown)
VH: B1 VH
VL: B1 VL with A32S, F60A
notes: one-arm format as m2
B17: GLS3000 G91A (antibody, name in Kabat numbering, V domains shown)
VH: B1 VH
VL: B1 VL with A32S, G96A
notes: one-arm format as m2
B18: GLS3000 F55E (antibody, name in Kabat numbering, V domains shown)
VH: B1 VH
VL: B1 VL with A32S, F60E
notes: one-arm format as m2
B19: GLS3000 G89F (antibody, name in Kabat numbering, V domains shown)
VH: B1 VH
VL: B1 VL with A32S, G94F
notes: one-arm format as m2
B20: GLS3000 F55S (antibody, name in Kabat numbering, V domains shown)
VH: B1 VH
VL: B1 VL with A32S, F60S
notes: one-arm format as m2
B21: GLS3000 G89W (antibody, name in Kabat numbering, V domains shown)
VH: B1 VH
VL: B1 VL with A32S, G94W
notes: one-arm format as m2
B22: GLS3000 G89E (antibody, name in Kabat numbering, V domains shown)
VH: B1 VH
VL: B1 VL with A32S, G94E
notes: one-arm format as m2
B23: GLS3000 G89D (antibody, name in Kabat numbering, V domains shown)
VH: B1 VH
VL: B1 VL with A32S, G94D
notes: one-arm format as m2
B24: GLS3000 F55P (antibody, name in Kabat numbering, V domains shown)
VH: B1 VH
VL: B1 VL with A32S, F60P
notes: one-arm format as m2
B25: GLS3000 G89T (antibody, name in Kabat numbering, V domains shown)
VH: B1 VH
VL: B1 VL with A32S, G94T
notes: one-arm format as m2
B26: GLS3000 G89Q (antibody, name in Kabat numbering, V domains shown)
VH: B1 VH
VL: B1 VL with A32S, G94Q
notes: one-arm format as m2
B27: GLS3000 G89V (antibody, name in Kabat numbering, V domains shown)
VH: B1 VH
VL: B1 VL with A32S, G94V
notes: one-arm format as m2
B28: GLS3000 H27dA (antibody, name in Kabat numbering, V domains shown)
VH: B1 VH
VL: B1 VL with H31A, A32S
notes: one-arm format as m2
B29: GLS3000 F55N (antibody, name in Kabat numbering, V domains shown)
VH: B1 VH
VL: B1 VL with A32S, F60N
notes: one-arm format as m2
B30: GLS3000 F55K (antibody, name in Kabat numbering, V domains shown)
VH: B1 VH
VL: B1 VL with A32S, F60K
notes: one-arm format as m2
B31: GLS3000 G89I (antibody, name in Kabat numbering, V domains shown)
VH: B1 VH
VL: B1 VL with A32S, G94I
notes: one-arm format as m2
B32: GLS3000 G89N (antibody, name in Kabat numbering, V domains shown)
VH: B1 VH
VL: B1 VL with A32S, G94N
notes: one-arm format as m2
B33: GLS3000 F55G (antibody, name in Kabat numbering, V domains shown)
VH: B1 VH
VL: B1 VL with A32S, F60G
notes: one-arm format as m2
B34: GLS3000 G91T (antibody, name in Kabat numbering, V domains shown)
VH: B1 VH
VL: B1 VL with A32S, G96T
notes: one-arm format as m2
B35: GLS3000 G91D (antibody, name in Kabat numbering, V domains shown)
VH: B1 VH
VL: B1 VL with A32S, G96D
notes: one-arm format as m2
B36: GLS3000 G91Y (antibody, name in Kabat numbering, V domains shown)
VH: B1 VH
VL: B1 VL with A32S, G96Y
notes: one-arm format as m2
B37: GLS3000 G89Y (antibody, name in Kabat numbering, V domains shown)
VH: B1 VH
VL: B1 VL with A32S, G94Y
notes: one-arm format as m2
B38: GLS3000 G89M (antibody, name in Kabat numbering, V domains shown)
VH: B1 VH
VL: B1 VL with A32S, G94M
notes: one-arm format as m2
B39: GLS3000 F55H (antibody, name in Kabat numbering, V domains shown)
VH: B1 VH
VL: B1 VL with A32S, F60H
notes: one-arm format as m2
B40: GLS3000 F55Q (antibody, name in Kabat numbering, V domains shown)
VH: B1 VH
VL: B1 VL with A32S, F60Q
notes: one-arm format as m2
B41: GLS3000 G89R (antibody, name in Kabat numbering, V domains shown)
VH: B1 VH
VL: B1 VL with A32S, G94R
notes: one-arm format as m2
B42: GLS3000 G89H (antibody, name in Kabat numbering, V domains shown)
VH: B1 VH
VL: B1 VL with A32S, G94H
notes: one-arm format as m2
B43: GLS3000 G89K (antibody, name in Kabat numbering, V domains shown)
VH: B1 VH
VL: B1 VL with A32S, G94K
notes: one-arm format as m2
B44: GLS3000 F55T (antibody, name in Kabat numbering, V domains shown)
VH: B1 VH
VL: B1 VL with A32S, F60T
notes: one-arm format as m2
B45: GLS3000 H27dE (antibody, name in Kabat numbering, V domains shown)
VH: B1 VH
VL: B1 VL with H31E, A32S
notes: one-arm format as m2
B46: GLS3000 G91E (antibody, name in Kabat numbering, V domains shown)
VH: B1 VH
VL: B1 VL with A32S, G96E
notes: one-arm format as m2

biological target: CD3ε homodimer protein (human, UniProt P07766 23-126, limits assumed); assay: SPR, immobilized CD3ε homodimer;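 further: biacore T200 surface plasmon resonance at 25 °C, antibody variants flowed as analytes over amine-coupled CD3ε homodimer on a CM4 chip, variant binding amount divided by that of GLS3000 antibody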
Sequence (P07766 23-126 limits assumed): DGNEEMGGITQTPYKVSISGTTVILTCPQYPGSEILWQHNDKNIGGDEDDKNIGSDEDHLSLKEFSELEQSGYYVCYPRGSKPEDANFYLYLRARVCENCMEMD

Row | ratio of amounts bound (vs GLS3000) | Binder
1 | 1.03 | B1
2 | 0.69 | B2
3 | 0.71 | B3
4 | 1.13 | B4
5 | 0.65 | B5
6 | 0.82 | B6
7 | 1.31 | B7
8 | 0.35 | B8
9 | 0.22 | B9
10 | 0.76 | B10
11 | 0.8 | B11
12 | 0.27 | B12
13 | 0.26 | B13
14 | 0.94 | B14
15 | 0.92 | B15
16 | 1.13 | B16
17 | 0.27 | B17
18 | 0.72 | B18
19 | 1.09 | B19
20 | 0.69 | B20
21 | 0.5 | B21
22 | 0.26 | B22
23 | 0.33 | B23

Row | ratio of amounts bound (vs GLS3000) | Binder
24 | 1.16 | B24
25 | 1.03 | B25
26 | 0.38 | B26
27 | 1.63 | B27
28 | 0.48 | B28
29 | 0.98 | B29
30 | 1.33 | B30
31 | 1.07 | B31
32 | 0.8 | B32
33 | 1.31 | B33
34 | 0.26 | B34
35 | 0.16 | B35
36 | 0.17 | B36
37 | 1.19 | B37
38 | 0.52 | B38
39 | 0.94 | B39
40 | 0.91 | B40
41 | 0.19 | B41
42 | 0.7 | B42
43 | 0.4 | B43
44 | 0.41 | B44
45 | 0.23 | B45
46 | 0.16 | B46
